Experimental data reported in the DeepSol protein solubility set.

Assay: soluble on expression in E. coli; label from the status in PepcDB or PDB records
In the case of “MGSDKIHHHHHHMRTNVRLLAYRLLRKYEKEKFISREDVDSVLSFLDDRDRRFFKELVWGVVRKEELLDWYINQLLKKKDIPPAVRVALRMGAYQLLFMNSVPDYAAVSETVKLVKNENFKKLVNAVLRRLRTVPEPKELHLVYSHPEWIVNYWRSFLPEEAVLRIMKWNQEPLPVMLRVNSLAATKEEVIKILAEEGTEAVPGKHAPFSLIVRKLGVPMNDSRVINDGLASVQGESSQLVPFFMELRPGLRVLDTCAAPGGKTTAIAELMKDQGKILAVDISREKIQLVEKHAKRLKLSSIETKIADAERLTEYVQDTFDRVLVDAPCTSLGTARNHPEVLRRVNKEDFEKFSEIQLRMVQQAWQLLEKGGILLYSTCTVTKEENTEVVKRFVYEQKDVEVIDIRDKMKEFEVEGIWDGYGFLMLPDETITPFYISVLRKMG”, the “soluble on expression in E. coli” value is reported as “not soluble”. In the case of “MARNVKGYASTLTWTITRNTLNFLWEQGFKMRINREEILDLMKNAPLKELGQRALRVKQRLHPENLTTFIVDRNINYTNICFVDCKFCAFKRTLKEKDAYVLSYEEIDQKIEELLAIGGTQILFQGGVHPQLKIDYYENLVSHIAQKFPTITIHGFSAVEIDYISKISKLSLKEVLERLKNAGLSSIPGAGAEVLSDRVRDVIAPKKLSSDRWIEVHRMAHLCGIKSTATMMFGSVDNEEDVVEHLQRVRDLQDETGGFRAFILWSFQPNNTPLKEEIPSIKKASSNRYLRYLACSRIFLDNIQNIQSSWVTQGSMIGQLALLFGANDLGSVMMEENVVKAAGTSFCMNEAGMIELIEDIGSVAAKRNTAYEILKRYPAKAKV”, the “soluble on expression in E. coli” value is reported as “not soluble”. In the case of “MSLKKQLVKTDGHNQLDQPNTKALQLKKKQFNSGVRVTSEISFLREVIAHHPGIETERVIDNQTFGSAMYLERAQKEHQLFIKILRQHGTKVHYLQDLLLEALSAADPNVRQDFIKNFLLESGIKSVSTFEACLNFFRSLDSLVDVIKVMFGGIKVSDVPPITPQRFADIHVSNSPFLIKPLSFSLYPHKFFNTLGTGVALFVTNDSELKRHSLVYEYIMRFHPRFDGVKLYTNRDFKNCLINSSDIIQISNEILLIGISHDTDVLGIESLARNLLSDHTNPIKQIIAINIHKFGAKTNLNKLIAMVDVDKFIIARKVLQATEIFELTATAQRDVDGLAQIKFKPLKFNFGEIIEAIIDKQPRFVIIGGGDEVAERKELLDCGMGVLNLSPGEIVVFDRNHYTNNLLNELGLIIHKIPASELSRGPSGPLEMVCSLWREEGHHHHHH”, the “soluble on expression in E. coli” value is reported as “soluble”. For “MGHHHHHHSHMARLILERFLQEHEETPPSKSIINSMLRDPSQIPDGVLANQVYQCIVNDCCYGPLVDCIKHAIGHEHEVLLRDLLLEKNLSFLDEDQLRAKGYDKTPDFILQVPVAVEGHIIHWIESKASFGDECSHHAYLHDQFWSYWNRFGPGLVIYWYGFIQELDCNRERGILLKACFPTNIVTLCHSIA”, the “soluble on expression in E. coli” value was “not soluble”. With “MILERVEIVGFRGINRLSLMLEQNNVLIGENAWGKSSLLDALTLLLSPESDLYHFERDDFWFPPGDINGREHHLHIILTFRESLPGRHRVRRYRPLEACWTPCTDGYHRIFYRLEGESAEDGSVMTLRSFLDKDGHPIDVEDINDQARHLVRLMPVLRLRDARFMRRIRNGTVPNVPNVEVTARQLDFLARELSSHPQNLSDGQIRQGLSAMVQLLEHYFSEQGAGQARYRLMRRRASNEQRSWRYLDIINRMIDRPGGRSYRVILLGLFATLLQAKGTLRLDKDARPLLLIEDPETRLHPIMLSVAWHLLNLLPLQRIATTNSGELLSLTPVEHVCRLVRESSRVAAWRLGPSGLSTEDSRRISFHIRFNRPSSLFARCWLLVEGETETWVINELARQCGHHFDAEGIKVIEFAQSGLKPLVKFARRMGIEWHVLVDGDEAGKKYAATVRSLLNNDREAEREHLTALPALDMEHFMYRQGFSDVFHRVAQIPENVPMNLRKIISKAIHRSSKPDLAIEVAMEAGRRGVDSVPTLLKKMFSRVLWLARGRAD” the “soluble on expression in E. coli” value was “not soluble”. With “MSLAGQIAIVTGASRGIGRGIALQLGEAGATVYITGRKPEESLNSKVGLSGLEATADEITKRGGKGIARFVDHQNMEEVKNFFEVVEKEHQGQLDILVNNAYQGVTAISENMGKPFYETDPYVWDTINNVGLRNHYFCTVYAARLMTARNKGLIVNVSSGGGLRYLFNVAYGVGKQALDRMSADTAVELRKKNVCVVSIWPGAVRTELVDKMFKDENGKPRPEIKNAEVFANGETVEYPGRAVVSLASDPRRMDKTGRILITEDLGKEYGFVDIDGLRPPNLRSVSFILKHLGWNTTANFVPTWVKLPGWLVWAGNSRL” the “soluble on expression in E. coli” value was “soluble”. With “MAGSTLTVKDLHVSIDGKEILKGVNLEVKGGEIHAIMGPNGTGKSTLSSAIMGHPKYEVTEGSIIIDGEDVLEMEVDERAQAGLFLAMQYPSEISGVTNADFLRSAINARREEGDEISLMKFIRKLDKNMEFLEMDPEMAQRYLNEGFSGGEKKRNEILQLMMIEPKIAILDEIDSGLDIDALKVVSKGINEMRGEEFGCLMITHYQRLLNYITPDFVHVMMNGRIVKSGGPELAQRLEAEGYDWIKKELGIEDETTEQEA” the “soluble on expression in E. coli” value was “not soluble”. With “MGSDKIHHHHHHMDKALLHFDNSYARDLEGFYAPWQAATAPAPRLLLLNQALAEELGLDSATLDDELGAAIFSGNQVPEGALPLAQAYAGHQFGHFSPQLGDGRALLLGELIDRHGRRRDMQLKGSGRTPFSRGGDGKAALGPVLREYVIGEAMHALGIPTTRALAAVTTGETVRRETWLPGAILTRIAASHIRVGTFQFFAARNENVRVKQLADYTIARHYPPLKGADNPYLELFAAVSAAQAALIARWMLVGFIHGVMNTDNMSIAGETIDYGPCAFMDNYDPETVFSSIDAHGRYAYAHQPLIAQWNLTRFAETLIDLVHPDPDEAARLLTEQLNEFPKLYTRHWLDGMRAKMGLATAEDGDLALAQALLSAMEGQNADFTQVFRGLSAAVRGDPAQVRAHFVNQAPFDLWLAQWQARLAHESATAEARAEAMDQVNPLYIPRNHKVEEALAAATLNQDLTPFKALLAVLERPFAERPGLESYTQPAPEDFGPFKTFCGT” the “soluble on expression in E. coli” value was “not soluble”. With “MCLIAFDWQPDAAAGPVFTLIANRDEFFRRTSAPLSWWEDVPGVLAGRDLEAGGTWLGVSRDGRFAALTNYRAPFDIRAGAPTRGKLVSDFLGGPPVAPLDYLGALAEHSAVYNGFNLLVGDWKRRELAWFCNRAAEGETAVAPPVAVSAGVHALSNARLDTPWPKIVRKRAELGTLLTDNPTPSLDELIELMRDPRVADDDALPHTGIPIERERALSAAFIETPEYGTRGTTALRVTMKEGVRLTVDIKERCDDDGSHRTVRPGTFERAFTFDIDATQPRLEHHHHHH” the “soluble on expression in E. coli” value was “soluble”. With “GPGSMSNAKNGSETTYFTAIANRDVEALKALIAQNRNVNEVAQDPVLYHRTPLHICVWENFVEGAKLLLDAGADVNALDDLHDSPYLLSGAEGRQEIMEHIYKNAERTMRYGSQTSLRMKTSVPDHSIVNRFGGSALIPACERGHVEMVRLLLQKGVDVNHYNYYHWTGLLEAIELGGDDREHVDIVRLLIENGADVNQVDGAGKTPLYLARKRKYKRIAALLEAAGGHE” the “soluble on expression in E. coli” value was “soluble”. With “MTDALGELEADVRADLAMIAHPGAAWLEPKIGPDGKPALDVLVVGAGQSGIAIGFGLMRSRVSNILLLDKAEEGKEGPWLTYARMPTLRSPKDYTGPDLDIPSLTYQSWHEARFGKQSWQELGLIERGHWAEYLLWLRRTVGLPVRNACELLEIAPASDGLLTARVKRAGEVETLYARKIVLATGQEGMGGWMIPEPLRHLPSGSVATVADDIDFEKLRGKRVAVIGAGASAFDNAATALEAGAAEVHLLCRRTQIQVIQPYRWLTFRGFLRHLSDLDDAWRWRFMRTILEMREGFPQATYDRCARHANFTLHEGAPVEAARETGKGVELQTPRGAIPADFVICGTGIDMSFAGRGELAAFAGNIATWADRYQPPSSERNERLGRFPYLADDYAFTERVPGETPWISDIHLFAIASTMSFGPSGSSINAMTTAVPKLVHGLTRGLFRADIARHWASLSAYDVPQAVVTRPARKTGELEHHHHHH” the “soluble on expression in E. coli” value was “soluble”. With “MVYWEYKINQTRRVMKNLKFQSVFDIIGPVMVGPSSSHTAGAVRIGKIVSAIFGDAPTEVEFQLFNSFAKTYRGHGTDVALVAGILGMETDDPDIPHALDIAHEKGIKVYWKINKDSKAPHPNTTRITLKNATKTISATGISIGGGNIQVTELNGF” the “soluble on expression in E. coli” value was “not soluble”.
